Source: patent US20060217299

Columns and labels:
[1] = biological target: GST-XIP (D25A)
[2] = biological target: GST-XIP (D25A, D70A, D80A)
[3] = biological target: GST-XIP (D39A) [GST: P08515]
[4] = biological target: GST-XIP (D58A)
[5] = biological target: GST [GST: P08515]
[6] = biological target: GST-XIP (D70A)
[7] = biological target: GST-XIP (D25A, D70A)

B1: caspase-1 (Calbiochem, Co., Ltd.) (protein)
chain: NPAMPTSSGSEGNVKLCSLEEAQRIWKQKSAEIYPIMDKSSRTRLALIICNEEFDSIPRRTGAEVDITGMTMLLQNLGYSVDVKKNLTASDMTTELEAFAHRPEHKTSDSTFLVFMSHGIREGICGKKHSEQVPDILQLNAIFNMLNTKNCPSLKDKPKVIIIQACRGDSPGVVWFKDSVGVSGNLSLPTTEEFEDDAIKKAHIEKDFIAFCSSTPDNVSWRHPTMGSVFIGRLIEHMQEYACSCDVEEIFRKVRFSFEQPDGRAQMPTTERVTLTRCFYLFPGH
With B1 the “caspase-1 protease assay (SDS-PAGE, western blotting with anti-GST antibody)” value (“caspase-1 protease assay” for short) [1] was “fragment located at the higher molecular weight side was detected; fragment located at the lower molecular weight side not detected when using GST-XIP (D25A)”, the “caspase-1 protease assay” value [2] was “This fragment was not detected when using GST-XIP (D25A, D70A, D80A) as a substrate” and the “caspase-1 protease assay” value [3] was “fragment located at the higher molecular weight side was detected; fragment located at the lower molecular weight side was detected when using GST-XIP (D39A)”. For the same protein, the “caspase-1 protease assay” value [4] was “fragment located at the higher molecular weight side was detected; fragment located at the lower molecular weight side was detected when using GST-XIP (D58A)”, the “caspase-1 protease assay” value [5] was “GST was not cleaved by caspase-1” and the “caspase-1 protease assay” value [6] was “fragment located at the higher molecular weight side not detected when using GST-XIP (D70A); fragment located at the lower molecular weight side was detected”. The “caspase-1 protease assay” value [7] was “When using GST-XIP (D25A, D70A) as a substrate, a new fragment other than the aforementioned fragments was detected”.
